Target: FLAG-tagged R2FasL (pFLAG-FlkFasL; FlkFasL with an N-terminal FLAG epitope tag) (mouse; human) (UniProt P35918)
Assay: cell-based or functional assay

Chain of FLAG-tagged R2FasL (pFLAG-FlkFasL; FlkFasL with an N-terminal FLAG epitope tag) (mouse; human) (P35918 other isoform, or with tags, fused parts or gaps): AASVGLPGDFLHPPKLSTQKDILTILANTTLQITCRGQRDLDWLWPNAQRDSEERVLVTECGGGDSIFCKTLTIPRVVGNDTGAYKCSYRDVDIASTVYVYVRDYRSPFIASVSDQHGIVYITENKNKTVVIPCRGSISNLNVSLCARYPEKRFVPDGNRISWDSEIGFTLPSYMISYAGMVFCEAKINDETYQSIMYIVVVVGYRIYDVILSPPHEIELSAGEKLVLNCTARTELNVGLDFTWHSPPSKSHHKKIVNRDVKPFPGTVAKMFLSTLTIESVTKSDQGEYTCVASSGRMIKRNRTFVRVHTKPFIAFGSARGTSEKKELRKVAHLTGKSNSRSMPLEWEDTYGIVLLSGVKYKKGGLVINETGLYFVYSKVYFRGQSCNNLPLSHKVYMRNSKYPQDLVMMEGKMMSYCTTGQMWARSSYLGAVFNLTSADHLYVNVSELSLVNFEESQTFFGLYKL

Substance: recombinant human VEGF-165 (from UniProt P15692 27-191) (ligand)
- ED50 (viability of Jurkat E6.1 cells, resazurin assay): 0.02 to 0.2 nM

— US20090214508A1
